From US20120164142A1
Changes are numbered by the printed parent chain. Ends that are not written are not given here.

T1: purified insulin degrading enzyme (IDE) (UniProt P14735)
T1 sequence (looked up): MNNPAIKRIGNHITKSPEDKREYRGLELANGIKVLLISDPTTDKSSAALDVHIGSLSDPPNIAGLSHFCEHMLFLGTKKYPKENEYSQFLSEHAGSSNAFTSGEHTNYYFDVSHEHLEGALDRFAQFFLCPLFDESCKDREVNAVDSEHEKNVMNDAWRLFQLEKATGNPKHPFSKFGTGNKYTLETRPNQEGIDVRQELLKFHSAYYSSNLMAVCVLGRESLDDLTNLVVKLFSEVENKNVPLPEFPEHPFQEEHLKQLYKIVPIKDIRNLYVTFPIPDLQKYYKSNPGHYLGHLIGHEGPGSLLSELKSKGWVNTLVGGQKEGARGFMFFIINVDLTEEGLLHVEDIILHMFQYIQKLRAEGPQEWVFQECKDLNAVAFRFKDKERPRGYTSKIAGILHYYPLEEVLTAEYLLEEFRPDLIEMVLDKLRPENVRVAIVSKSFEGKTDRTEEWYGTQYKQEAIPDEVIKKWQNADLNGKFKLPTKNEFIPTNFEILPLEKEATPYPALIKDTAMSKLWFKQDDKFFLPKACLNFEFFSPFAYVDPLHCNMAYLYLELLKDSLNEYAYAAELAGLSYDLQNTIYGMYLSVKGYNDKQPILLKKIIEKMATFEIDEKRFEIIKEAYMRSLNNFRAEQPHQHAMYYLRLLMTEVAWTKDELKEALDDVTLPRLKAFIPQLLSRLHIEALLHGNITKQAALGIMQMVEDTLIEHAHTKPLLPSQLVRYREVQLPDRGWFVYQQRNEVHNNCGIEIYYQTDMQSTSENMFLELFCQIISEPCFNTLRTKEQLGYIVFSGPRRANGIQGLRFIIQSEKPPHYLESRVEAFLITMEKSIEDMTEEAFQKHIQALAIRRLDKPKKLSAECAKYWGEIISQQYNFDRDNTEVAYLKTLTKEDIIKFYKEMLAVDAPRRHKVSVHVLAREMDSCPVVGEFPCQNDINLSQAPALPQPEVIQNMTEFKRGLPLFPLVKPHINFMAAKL

B1: atrial natriuretic peptide (ANP) (peptide)
peptide: SLRRSSCFGGRMDRIGAQSGLGCNSFRY
B2: CDNP-A4A5 (peptide)
peptide: GLSKGCFGLKLDRIGSMSGLGCPSLAAPRPNAPSTSA
modifications: ends and bridges not checked; cysteine pairing not given here
B3: CDNP-A5 (peptide)
peptide: B2 peptide with A26R
modifications: ends and bridges not checked; cysteine pairing not given here
B4: CDNP-A4 (peptide)
peptide: B2 peptide with A27D
modifications: ends and bridges not checked; cysteine pairing not given here
B5: CDNP-S3A5 (peptide)
peptide: B2 peptide with L25S, A26R
modifications: ends and bridges not checked; cysteine pairing not given here
B6: CNP-14AAlinker-D6 [C4] (peptide)
peptide: GLSKGCFGLKLDRIGSMSGLGCGGGGSGGGGSGGGGDDDDDD
B7: KB1(E6) (peptide)
peptide: EEEEEEHKLRGQEHPNARKYKGANKKGLSKGCFGLKLDRIGSMSGLGC
B8: KA1(E6) (peptide)
peptide: B7 peptide with K8G, L9P, R10Q
B9: C4(E6) [BC4] (peptide)
peptide: EEEEEESGGGGSGGGKGANKKGLSKGCFGLKLDRIGSMSGLGC
B10: C7(E6) [BC7] (peptide)
peptide: B9 peptide with K20Q
B11: C6(E6) [BC6] (peptide)
peptide: B9 peptide with K21Q
B12: C9(E6) [BC9] (peptide)
peptide: B9 peptide with K20Q, K21Q
B13: C11(E6) [BC11] (peptide)
peptide: B9 peptide with K16Q, K21Q
B14: C8(E6) [BC8] (peptide)
peptide: B9 peptide with K16Q
B15: C10(E6) [BC10] (peptide)
peptide: B9 peptide with K16Q, K20Q
B16: C5(E6) [BC5] (peptide)
peptide: B9 peptide with K16Q, K20Q, K21Q
B17: CDNP-S3A4A5 (peptide)
peptide: B2 peptide with L25S
modifications: ends and bridges not checked; cysteine pairing not given here
B18: CDNP-S3A4 (peptide)
peptide: B2 peptide with L25S, A27D
modifications: ends and bridges not checked; cysteine pairing not given here
B19: human CNP22 (peptide)
peptide: GLSKGCFGLKLDRIGSMSGLGC
B20: C1(E6) [BC1] (peptide)
peptide: EEEEEESGGGGSGGGGSGGGGGLSKGCFGLKLDRIGSMSGLGC
B21: D6-14AAlinker-CNP [C3] (peptide)
peptide: DDDDDDGGGGSGGGGSGGGGGLSKGCFGLKLDRIGSMSGLGC

molecular target: human natriuretic peptide receptor A (NPR-A) (human) (UniProt P16066); assay: cell-based or functional assay
Sequence (P16066 33-1061): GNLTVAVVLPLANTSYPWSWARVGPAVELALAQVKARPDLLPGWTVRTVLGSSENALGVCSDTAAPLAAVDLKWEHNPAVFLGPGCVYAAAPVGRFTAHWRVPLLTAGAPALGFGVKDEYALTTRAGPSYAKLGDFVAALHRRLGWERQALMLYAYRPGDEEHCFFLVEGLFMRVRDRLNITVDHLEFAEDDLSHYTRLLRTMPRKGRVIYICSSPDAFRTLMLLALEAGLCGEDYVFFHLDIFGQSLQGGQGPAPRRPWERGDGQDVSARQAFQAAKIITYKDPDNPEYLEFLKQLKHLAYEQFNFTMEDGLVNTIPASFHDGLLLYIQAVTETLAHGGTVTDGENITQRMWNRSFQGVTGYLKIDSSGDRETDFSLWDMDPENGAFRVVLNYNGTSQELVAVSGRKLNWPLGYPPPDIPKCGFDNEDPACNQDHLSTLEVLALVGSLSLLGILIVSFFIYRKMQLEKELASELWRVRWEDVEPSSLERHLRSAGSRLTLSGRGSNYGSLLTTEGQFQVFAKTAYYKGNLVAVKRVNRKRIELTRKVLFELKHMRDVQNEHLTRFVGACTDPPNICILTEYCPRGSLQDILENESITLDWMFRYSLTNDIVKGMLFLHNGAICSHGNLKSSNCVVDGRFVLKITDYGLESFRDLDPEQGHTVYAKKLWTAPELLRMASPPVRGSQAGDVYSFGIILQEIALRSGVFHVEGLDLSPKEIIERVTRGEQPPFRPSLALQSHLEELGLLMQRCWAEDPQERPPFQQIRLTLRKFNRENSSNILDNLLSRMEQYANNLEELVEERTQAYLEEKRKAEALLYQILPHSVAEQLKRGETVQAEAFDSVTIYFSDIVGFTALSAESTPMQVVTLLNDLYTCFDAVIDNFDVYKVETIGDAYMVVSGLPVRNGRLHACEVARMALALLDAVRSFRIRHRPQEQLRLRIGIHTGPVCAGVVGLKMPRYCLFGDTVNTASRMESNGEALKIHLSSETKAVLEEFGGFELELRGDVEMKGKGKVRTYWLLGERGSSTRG

Row | Binder | EC50 on NPR-A (nM), whole cell cGMP assay | % efficacy versus CDNP on NPR-A, membrane cGMP assay | EC50 ratio versus CDNP on NPR-A, membrane cGMP assay
1 | B1 | 1.4 nM |  | 
2 | B2 |  | 49% | 0.48
3 | B3 |  | 114% | 1.33
4 | B4 |  | 90% | 41.1
5 | B5 |  | 36% | 1.33

molecular target: human natriuretic peptide receptor B (NPR-B) (human) (UniProt P20594); assay: cell-based or functional assay
Sequence (P20594 23-1047): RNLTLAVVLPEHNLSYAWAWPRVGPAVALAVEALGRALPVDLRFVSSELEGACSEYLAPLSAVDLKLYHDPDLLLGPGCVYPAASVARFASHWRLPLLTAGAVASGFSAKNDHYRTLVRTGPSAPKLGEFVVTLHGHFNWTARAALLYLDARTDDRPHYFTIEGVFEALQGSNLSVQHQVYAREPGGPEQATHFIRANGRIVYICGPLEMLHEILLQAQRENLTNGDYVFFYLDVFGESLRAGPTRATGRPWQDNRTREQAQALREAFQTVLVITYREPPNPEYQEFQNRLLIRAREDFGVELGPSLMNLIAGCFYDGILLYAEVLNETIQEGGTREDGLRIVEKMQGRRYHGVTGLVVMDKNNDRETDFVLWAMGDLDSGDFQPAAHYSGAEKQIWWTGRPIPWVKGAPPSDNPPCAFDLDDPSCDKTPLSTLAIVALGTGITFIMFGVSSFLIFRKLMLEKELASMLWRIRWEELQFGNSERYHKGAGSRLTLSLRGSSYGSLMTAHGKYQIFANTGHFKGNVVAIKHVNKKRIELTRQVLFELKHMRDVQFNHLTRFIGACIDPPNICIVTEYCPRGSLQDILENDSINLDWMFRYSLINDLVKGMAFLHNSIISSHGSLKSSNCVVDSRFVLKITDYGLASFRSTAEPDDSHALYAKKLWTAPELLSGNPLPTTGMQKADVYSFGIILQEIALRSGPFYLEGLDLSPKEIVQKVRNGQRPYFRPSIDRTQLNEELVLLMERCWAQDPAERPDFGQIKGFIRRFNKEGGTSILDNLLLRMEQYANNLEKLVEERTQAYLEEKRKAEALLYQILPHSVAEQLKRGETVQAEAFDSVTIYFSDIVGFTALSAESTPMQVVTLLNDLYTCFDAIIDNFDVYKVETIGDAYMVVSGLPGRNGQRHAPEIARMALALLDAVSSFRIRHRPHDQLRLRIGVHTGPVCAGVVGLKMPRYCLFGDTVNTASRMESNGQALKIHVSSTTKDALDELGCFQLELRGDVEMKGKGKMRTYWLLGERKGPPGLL

Row | Binder | % Efficacy | EC50 (nM), NPR-B whole cell cGMP assay | EC50 Ratio versus CNP22 | Rescue Ratio Average | % loss in efficacy versus CDNP (NPR-B selective efficacy gain) | Approximate fold gain in selectivity versus CDNP (NPR-B over NPR-A) | Approximate fold selectivity NPR-B versus NPR-A | % efficacy versus CDNP on NPR-B, membrane cGMP assay | EC50 ratio versus CDNP on NPR-B, membrane cGMP assay | EC50 on NPR-B (nM), whole cell cGMP assay
6 | B6 | 156% | 2140 nM | 146 | 545 |  |  |  |  |  | 
7 | B7 | 109% | 84.5 nM | 5.75 | 5.6 |  |  |  |  |  | 
8 | B8 | 108% | 144 nM | 9.79 | 8.2 |  |  |  |  |  | 
9 | B9 | 136% | 302 nM | 20.5 | 18 |  |  |  |  |  | 
10 | B10 | 95% | 1010 nM | 68.6 | 80 |  |  |  |  |  | 
11 | B11 | 88% | 672 nM | 45.7 | 63 |  |  |  |  |  | 
12 | B12 | 95% | 1170 nM | 79.3 | 87 |  |  |  |  |  | 
13 | B13 | 95% | 888 nM | 60.4 | 120 |  |  |  |  |  | 
14 | B14 | 97% | 719 nM | 48.9 | 52 |  |  |  |  |  | 
15 | B15 | 156% | 2470 nM | 168 | 90 |  |  |  |  |  | 
16 | B16 | 96% | 2360 nM | 161 | 138 |  |  |  |  |  | 
17 | B17 |  |  |  |  | 69% | 14.9 fold | 43.5 fold |  |  | 
18 | B2 |  |  |  |  | 36% | 0.98 fold | 2.86 fold | 85% | 0.49 | 
19 | B3 |  |  |  |  | -27% | 5.54 fold | 16.2 fold | 87% | 0.24 | 
20 | B4 |  |  |  |  | 2% | 17.8 fold | 52 fold | 92% | 2.31 | 
21 | B18 |  |  |  |  | 27% | 28.5 fold | 83.2 fold |  |  | 
22 | B5 |  |  |  |  | 82% | 1.23 fold | 3.59 fold | 118% | 1.08 | 
23 | B19 | 100% | 14.7 nM | 1 | 1 |  |  |  |  |  | 4.87 nM
24 | B20 | 97% | 1740 nM | 118 | 122 |  |  |  |  |  | 

same assay, conditions: not given

Row | Binder | Rescue Ratio versus CNP22
25 | B19 | 1

molecular target: T1, purified insulin degrading enzyme (IDE); assay: cell-based or functional assay

Row | Binder | reduction of ability to generate cGMP (NPRB cells) after 30 min with purified IDE | reduction of ability to generate cGMP (NPRB cells) after 120 min with purified IDE
26 | B19 | 64% | 99%

molecular target: purified neutral endopeptidase (NEP) (UniProt P08473); assay: cell-based or functional assay
Sequence (P08473 52-750 limits assumed): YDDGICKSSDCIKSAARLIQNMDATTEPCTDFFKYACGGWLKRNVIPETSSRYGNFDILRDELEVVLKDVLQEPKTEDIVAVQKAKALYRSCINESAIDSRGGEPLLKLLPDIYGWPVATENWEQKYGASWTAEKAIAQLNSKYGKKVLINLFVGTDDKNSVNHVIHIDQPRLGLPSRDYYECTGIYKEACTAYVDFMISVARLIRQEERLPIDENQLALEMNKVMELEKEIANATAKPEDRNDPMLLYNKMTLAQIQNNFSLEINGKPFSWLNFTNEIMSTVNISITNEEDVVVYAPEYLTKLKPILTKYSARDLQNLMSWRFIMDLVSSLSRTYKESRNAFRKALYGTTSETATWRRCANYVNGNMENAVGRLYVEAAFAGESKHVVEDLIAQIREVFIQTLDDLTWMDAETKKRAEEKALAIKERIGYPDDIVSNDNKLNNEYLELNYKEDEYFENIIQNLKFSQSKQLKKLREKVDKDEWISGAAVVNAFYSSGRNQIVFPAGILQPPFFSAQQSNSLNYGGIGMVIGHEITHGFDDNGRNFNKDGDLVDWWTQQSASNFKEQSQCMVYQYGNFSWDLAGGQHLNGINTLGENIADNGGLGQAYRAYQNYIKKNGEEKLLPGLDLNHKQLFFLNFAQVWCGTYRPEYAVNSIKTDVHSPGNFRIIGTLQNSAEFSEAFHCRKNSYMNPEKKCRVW

Row | Binder | % of control after 240 min (intact peptide by RP-HPLC after incubation with NEP) | reduction of ability to generate cGMP (NPRB cells) after 30 min with purified NEP | reduction of ability to generate cGMP (NPRB cells) after 120 min with purified NEP
27 | B6 | 75% |  | 
28 | B7 | 107% |  | 
29 | B8 | 108% |  | 
30 | B9 | 94% |  | 
31 | B10 | 98% |  | 
32 | B11 | 98% |  | 
33 | B12 | 98% |  | 
34 | B13 | 102% |  | 
35 | B14 | 103% |  | 
36 | B15 | 102% |  | 
37 | B16 | 100% |  | 
38 | B19 | 0% | 50% | 87%
39 | B20 | 99% |  | 
40 | B21 | 101% |  | 
